These results are taken from US11833164B2, “Methods of treating Fabry disease in patients having a mutation in the GLA gene” (Amicus Therapeutics, Inc., priority 2019, dated 2023).

For the assay, the system named is mutant form of α-Gal A expressed in HEK-293 cells. The assay can be described thus: HEK assay (GLP HEK / Migalastat Amenability Assay): α-Gal A activity in lysates of transiently transfected HEK-293 cells incubated with or without 10 μM migalastat. The class given is cell-based, human. The note with it: for Absolute increase (% WT): 10 μM migalastat versus baseline; for Relative increase: 10 μM migalastat α-Gal A activity relative to baseline; for 10 μM migalastat α-Gal A activity (% WT): 5 days; for 10 μM migalastat α-Gal A activity (% WT) / Baseline α-Gal A activity (% WT): percentage of baseline wild-type α-Gal A activity; for 10 μM migalastat α-Gal A activity (% WT) / Baseline α-Gal A activity (% WT) / Baseline α-Gal A activity / 10 μM migalastat α-Gal A activity: mean ± SEM; for Baseline α-Gal A activity (% WT): absence of migalastat; for Baseline α-Gal A activity / 10 μM migalastat α-Gal A activity: lysates of HEK-293 cells transfected with the mutant form; for Baseline α-Gal A activity: incubated 5 days in the absence of migalastat; for 10 μM migalastat α-Gal A activity: incubated 5 days with 10 μM migalastat. As to the method: Such mutations or variants are also referred to herein as “HEK assay amenable” mutations or variants.
The α-Gal A activity is expressed as the nmoles of free 4-MU released per milligram of protein per hour (nmol/mg/hr).
In Table 7, values for the mean±standard error of the mean (SEM) were calculated. nmol/mg/hr indicates “nmoles of free 4-MU released per mg of protein per hour”. WT indicates “wild-type”. NC indicates “not calculable”. N/A indicates “not applicable”.

B1: I117M (protein)
chain: MQLRNPELHLGCALALRFLALVSWDIPGARALDNGLARTPTMGWLHWERFMCNLDCQEEPDSCISEKLFMEMAELMVSEGWKDAGYEYLCIDDCWMAPQRDSEGRLQADPQRFPHGMRQLANYVHSKGLKLGIYADVGNKTCAGFPGSFGYYDIDAQTFADWGVDLLKFDGCYCDSLENLADGYKHMSLALNRTGRSIVYSCEWPLYMWPFQKPNYTEIRQYCNHWRNFADIDDSWKSIKSILDWTSFNQERIVDVAGPGGWNDPDMLVIGNFGLSWNQQVTQMALWAIMAAPLFMSNDLRHISPQAKALLQDKDVIAINQDPLGKQGYQLRQGDNFEVWERPLSGLAWAVAMINRQEIGGPRSYTIAVASLGKGVACNPACFITQLLPVKRKLGFYEWTSRLRSHINPTGTVLLQLENTMQMSLKDLL
On to B1, for which the “Absolute increase (% WT)” value stood at 29.4 % WT, the Relative increase amounted to 1.6, the “10 μM migalastat α-Gal A activity (% WT)” value is on record as 83.5 ± 3.6 % WT and the “Baseline α-Gal A activity (% WT)” value stood at 54.2 ± 3.9 % WT. For the same molecule, the “Baseline α-Gal A activity” value was determined as 20226 ± 1373 nmol/mg/h and the “10 μM migalastat α-Gal A activity” value was found to be 31280 ± 1153 nmol/mg/h.

B2: A121V (protein)
chain: MQLRNPELHLGCALALRFLALVSWDIPGARALDNGLARTPTMGWLHWERFMCNLDCQEEPDSCISEKLFMEMAELMVSEGWKDAGYEYLCIDDCWMAPQRDSEGRLQADPQRFPHGIRQLVNYVHSKGLKLGIYADVGNKTCAGFPGSFGYYDIDAQTFADWGVDLLKFDGCYCDSLENLADGYKHMSLALNRTGRSIVYSCEWPLYMWPFQKPNYTEIRQYCNHWRNFADIDDSWKSIKSILDWTSFNQERIVDVAGPGGWNDPDMLVIGNFGLSWNQQVTQMALWAIMAAPLFMSNDLRHISPQAKALLQDKDVIAINQDPLGKQGYQLRQGDNFEVWERPLSGLAWAVAMINRQEIGGPRSYTIAVASLGKGVACNPACFITQLLPVKRKLGFYEWTSRLRSHINPTGTVLLQLENTMQMSLKDLL
Regarding B2, the “Absolute increase (% WT)” value was determined as 56.7 % WT, the Relative increase was determined as 3.7, the “10 μM migalastat α-Gal A activity (% WT)” value is on record as 78.2 ± 4.2 % WT and the “Baseline α-Gal A activity (% WT)” value is on record as 21.5 ± 1.2 % WT. In addition, the “Baseline α-Gal A activity” value was 7301 ± 253 nmol/mg/h and the “10 μM migalastat α-Gal A activity” value was 26639 ± 1124 nmol/mg/h.

B3: Y123D (protein)
chain: MQLRNPELHLGCALALRFLALVSWDIPGARALDNGLARTPTMGWLHWERFMCNLDCQEEPDSCISEKLFMEMAELMVSEGWKDAGYEYLCIDDCWMAPQRDSEGRLQADPQRFPHGIRQLANDVHSKGLKLGIYADVGNKTCAGFPGSFGYYDIDAQTFADWGVDLLKFDGCYCDSLENLADGYKHMSLALNRTGRSIVYSCEWPLYMWPFQKPNYTEIRQYCNHWRNFADIDDSWKSIKSILDWTSFNQERIVDVAGPGGWNDPDMLVIGNFGLSWNQQVTQMALWAIMAAPLFMSNDLRHISPQAKALLQDKDVIAINQDPLGKQGYQLRQGDNFEVWERPLSGLAWAVAMINRQEIGGPRSYTIAVASLGKGVACNPACFITQLLPVKRKLGFYEWTSRLRSHINPTGTVLLQLENTMQMSLKDLL
For B3, the “Absolute increase (% WT)” value was 10.2 % WT, the Relative increase came to 1.2, the “10 μM migalastat α-Gal A activity (% WT)” value is 53.6 ± 2.7 % WT and the “Baseline α-Gal A activity (% WT)” value is 43.4 ± 1.6 % WT. For the same molecule, the “Baseline α-Gal A activity” value turned out to be 15093 ± 815 nmol/mg/h and the “10 μM migalastat α-Gal A activity” value stood at 18723 ± 1237 nmol/mg/h.

B4: Y123S (protein)
chain: MQLRNPELHLGCALALRFLALVSWDIPGARALDNGLARTPTMGWLHWERFMCNLDCQEEPDSCISEKLFMEMAELMVSEGWKDAGYEYLCIDDCWMAPQRDSEGRLQADPQRFPHGIRQLANSVHSKGLKLGIYADVGNKTCAGFPGSFGYYDIDAQTFADWGVDLLKFDGCYCDSLENLADGYKHMSLALNRTGRSIVYSCEWPLYMWPFQKPNYTEIRQYCNHWRNFADIDDSWKSIKSILDWTSFNQERIVDVAGPGGWNDPDMLVIGNFGLSWNQQVTQMALWAIMAAPLFMSNDLRHISPQAKALLQDKDVIAINQDPLGKQGYQLRQGDNFEVWERPLSGLAWAVAMINRQEIGGPRSYTIAVASLGKGVACNPACFITQLLPVKRKLGFYEWTSRLRSHINPTGTVLLQLENTMQMSLKDLL
In the case of B4, the “Absolute increase (% WT)” value came to 19.3 % WT, the Relative increase was 1.5, the “10 μM migalastat α-Gal A activity (% WT)” value came out at 61 ± 3.6 % WT and the “Baseline α-Gal A activity (% WT)” value is recorded as 41.7 ± 2.1 % WT. The “Baseline α-Gal A activity” value amounted to 14556 ± 986 nmol/mg/h and the “10 μM migalastat α-Gal A activity” value turned out to be 21255 ± 1484 nmol/mg/h.

B5: I117T (protein)
chain: MQLRNPELHLGCALALRFLALVSWDIPGARALDNGLARTPTMGWLHWERFMCNLDCQEEPDSCISEKLFMEMAELMVSEGWKDAGYEYLCIDDCWMAPQRDSEGRLQADPQRFPHGTRQLANYVHSKGLKLGIYADVGNKTCAGFPGSFGYYDIDAQTFADWGVDLLKFDGCYCDSLENLADGYKHMSLALNRTGRSIVYSCEWPLYMWPFQKPNYTEIRQYCNHWRNFADIDDSWKSIKSILDWTSFNQERIVDVAGPGGWNDPDMLVIGNFGLSWNQQVTQMALWAIMAAPLFMSNDLRHISPQAKALLQDKDVIAINQDPLGKQGYQLRQGDNFEVWERPLSGLAWAVAMINRQEIGGPRSYTIAVASLGKGVACNPACFITQLLPVKRKLGFYEWTSRLRSHINPTGTVLLQLENTMQMSLKDLL
In the case of B5, the “Absolute increase (% WT)” value stood at 4.7 % WT, the Relative increase is 2.1, the “10 μM migalastat α-Gal A activity (% WT)” value came to 9 ± 0.9 % WT and the “Baseline α-Gal A activity (% WT)” value turned out to be 4.3 ± 0.2 % WT. The “Baseline α-Gal A activity” value worked out at 1607 ± 54 nmol/mg/h and the “10 μM migalastat α-Gal A activity” value turned out to be 3303 ± 308 nmol/mg/h.

B6: Y123F (protein)
chain: MQLRNPELHLGCALALRFLALVSWDIPGARALDNGLARTPTMGWLHWERFMCNLDCQEEPDSCISEKLFMEMAELMVSEGWKDAGYEYLCIDDCWMAPQRDSEGRLQADPQRFPHGIRQLANFVHSKGLKLGIYADVGNKTCAGFPGSFGYYDIDAQTFADWGVDLLKFDGCYCDSLENLADGYKHMSLALNRTGRSIVYSCEWPLYMWPFQKPNYTEIRQYCNHWRNFADIDDSWKSIKSILDWTSFNQERIVDVAGPGGWNDPDMLVIGNFGLSWNQQVTQMALWAIMAAPLFMSNDLRHISPQAKALLQDKDVIAINQDPLGKQGYQLRQGDNFEVWERPLSGLAWAVAMINRQEIGGPRSYTIAVASLGKGVACNPACFITQLLPVKRKLGFYEWTSRLRSHINPTGTVLLQLENTMQMSLKDLL
With B6, the “Absolute increase (% WT)” value is 33.8 % WT, the Relative increase amounted to 1.5, the “10 μM migalastat α-Gal A activity (% WT)” value amounted to 97.4 ± 3.4 % WT and the “Baseline α-Gal A activity (% WT)” value is reported as 63.6 ± 3.3 % WT. Besides, the “Baseline α-Gal A activity” value amounted to 22066 ± 1408 nmol/mg/h and the “10 μM migalastat α-Gal A activity” value is 33544 ± 1384 nmol/mg/h.

B7: Y123N (protein)
chain: MQLRNPELHLGCALALRFLALVSWDIPGARALDNGLARTPTMGWLHWERFMCNLDCQEEPDSCISEKLFMEMAELMVSEGWKDAGYEYLCIDDCWMAPQRDSEGRLQADPQRFPHGIRQLANNVHSKGLKLGIYADVGNKTCAGFPGSFGYYDIDAQTFADWGVDLLKFDGCYCDSLENLADGYKHMSLALNRTGRSIVYSCEWPLYMWPFQKPNYTEIRQYCNHWRNFADIDDSWKSIKSILDWTSFNQERIVDVAGPGGWNDPDMLVIGNFGLSWNQQVTQMALWAIMAAPLFMSNDLRHISPQAKALLQDKDVIAINQDPLGKQGYQLRQGDNFEVWERPLSGLAWAVAMINRQEIGGPRSYTIAVASLGKGVACNPACFITQLLPVKRKLGFYEWTSRLRSHINPTGTVLLQLENTMQMSLKDLL
As to B7, the “Absolute increase (% WT)” value is recorded as 19.7 % WT, the Relative increase is 1.5, the “10 μM migalastat α-Gal A activity (% WT)” value came out at 60.6 ± 4.1 % WT and the “Baseline α-Gal A activity (% WT)” value is recorded as 40.9 ± 3.2 % WT. Moreover, the “Baseline α-Gal A activity” value was 13817 ± 816 nmol/mg/h and the “10 μM migalastat α-Gal A activity” value came to 20466 ± 846 nmol/mg/h.

B8: V124I (protein)
chain: MQLRNPELHLGCALALRFLALVSWDIPGARALDNGLARTPTMGWLHWERFMCNLDCQEEPDSCISEKLFMEMAELMVSEGWKDAGYEYLCIDDCWMAPQRDSEGRLQADPQRFPHGIRQLANYIHSKGLKLGIYADVGNKTCAGFPGSFGYYDIDAQTFADWGVDLLKFDGCYCDSLENLADGYKHMSLALNRTGRSIVYSCEWPLYMWPFQKPNYTEIRQYCNHWRNFADIDDSWKSIKSILDWTSFNQERIVDVAGPGGWNDPDMLVIGNFGLSWNQQVTQMALWAIMAAPLFMSNDLRHISPQAKALLQDKDVIAINQDPLGKQGYQLRQGDNFEVWERPLSGLAWAVAMINRQEIGGPRSYTIAVASLGKGVACNPACFITQLLPVKRKLGFYEWTSRLRSHINPTGTVLLQLENTMQMSLKDLL
B8: the “Absolute increase (% WT)” value is recorded as 30.6 % WT, the Relative increase was 1.4, the “10 μM migalastat α-Gal A activity (% WT)” value turned out to be 111.3 ± 4.5 % WT and the “Baseline α-Gal A activity (% WT)” value was determined as 80.7 ± 2 % WT. The “Baseline α-Gal A activity” value amounted to 32074 ± 1858 nmol/mg/h and the “10 μM migalastat α-Gal A activity” value stood at 43288 ± 2179 nmol/mg/h.
